In publication PMC9812398:

Tests used:
[1] = target: human full-length GFP-CLASP2α (human) (UniProt O75122); test: TIRF microscopy of microtubules on DNA origami-clustered protein
[2] = target: stabilized microtubules polymerized from cow brain tubulin (cow) (UniProt Q6B856); test: TIRF microscopy of microtubule end decoration

time for which half of the microtubules keep end association [1] [h] | end brightness [2] [a.u.] | Molecule
4 | – | stabilized microtubules polymerized from cow brain tubulin (from UniProt Q6B856 1-445) (complex)
– | 594 | human full-length GFP-CLASP2α (from UniProt O75122-3 1-1515) (natural protein)
– | 757 | GFP-L-TOG2-S (domain or fragment) KVPAPKTSGNPANSARKPGSAGGPKVGAGASKEGGAGAVDEDDFIKAFTDVPSIQIYSSRELEETLNKIREILSDDKHDWDQRANALKKIRSLLVAGAAQYDCFFQHLRLLDGALKLSAKDLRSQVVREACITVAHLSTVLGNKFDHGAEAIVPTLFNLVPNSAKVMATSGCAAIRFIIRHTHVPRLIPLITSNCTSKSVPVRRRSFEFLDLLLQEWQTHSLERHAAVLVETIKKGIHDADAEARVEARKTYMGLRNHFPGEAETLYNSLEPSYQKSLQTYLKSSGSVASLPQSDRSSSSSQESLNRPFSSKWSTANPSTVAGRVSAGSSKASSLPGSLQRSRSDIDVNAAAGAKAHHAAGQSVRSGRLGAGALNAGSYASLEDTSDKLDGTASEDGRVRAKLSAPLAGMGNAKADSRGRSRTKMVSQSQPGSRSGSPGRVLTTTALSTVSSGVQRVLVNSASAQKRSKIPRSQGCSREASPSRLSVARSSRIPRPSVSQGCSREASRESSRDTSPVRSFQPLGPGYGISQSS
